# Source: US20130302313A1
# Target: coxsackievirus-adenovirus receptor (CAR) (UniProt P78310)
# Experiment: cell-based or functional assay
# Sequence of UniProt P78310 (P78310 20-365 limits assumed): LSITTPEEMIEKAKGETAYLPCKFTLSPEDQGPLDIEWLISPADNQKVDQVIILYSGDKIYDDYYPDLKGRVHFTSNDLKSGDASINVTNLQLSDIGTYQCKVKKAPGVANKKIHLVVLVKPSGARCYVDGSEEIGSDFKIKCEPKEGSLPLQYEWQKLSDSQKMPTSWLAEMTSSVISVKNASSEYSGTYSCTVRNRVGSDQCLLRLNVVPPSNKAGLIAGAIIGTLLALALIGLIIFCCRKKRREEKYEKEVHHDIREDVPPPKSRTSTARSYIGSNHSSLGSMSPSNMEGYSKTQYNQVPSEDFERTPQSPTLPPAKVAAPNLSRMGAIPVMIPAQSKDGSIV
substance,measurement,value
free soluble Ad5 fiber molecules (from UniProt P11818 1-581) (ligand),"GFP expression (transduction) of A549 cells by Ad5(GFP) at 500 evg/cell in the presence of soluble Ad5 fiber, relative to absence of soluble fiber (set to 100%)",20%
same,"Transduction efficacy of A549 cells by Ad5PTD(GFP) at 500 evg/cell in the presence of soluble Ad5 fiber, relative to absence of soluble fiber (set to 100%)",80%
